Measured values reported in patent US20220112526A1, “BIOSYNTHESIS OF VANILLIN FROM ISOEUGENOL” (Conagen Inc., priority 2019, published 2022).

Experiment: Enzyme assay in vitro: formation of vanillin from isoeugenol by purified isoeugenol monooxygenase (HPLC)
Type: biochemical
Details: 10 mM isoeugenol, pH 7.0, 30° C., 10 min
Method: The two purified isoeugenol monooxygenases were assayed by measuring the formation of vanillin in an enzymatic measuring mixture with isoeugenol as the substrate. The reaction mixture contained 10 mM isoeugenol, 100 mM potassium phosphate buffer (pH 7.0), 10% (v/v) ethanol and an appropriate amount of enzyme, in a total volume of 1 ml. The reaction was started, by adding isoeugenol as ethanol solution, carried out at 30° C. for 10 min with reciprocal shaking (160 strokes min^−1) and stopped with 1 ml of methanol. After centrifugation at 21,500, the supernatant was analyzed by HPLC for the determination of isoeugenol, vanillin, and vanillyl alcohol. CfIEM enzyme treated in boiling water for 5 minutes was used as the negative control.
As expected, no vanillin was produced with the negative control (lower panel).

B1: CfIEM: isoeugenol monooxygenase from the fungus Colletotrichum fioriniae PJ7, 539 amino acids (SEQ ID NO: 2) (protein, listed as Colletotrichum fioriniae)
chain: MAPGRTDDEAAEVATSSKTHAISNYGLTTKWPEAYDLAGSNLPCRLEGEIGDLVVLGEIPKEIDGTFYRVMTDPFVPPHPNNVPLDGDGNISAFRIKDGRVDMKMRYVETERYKLERKANKALFGLYRNPFTHHPCVRAAVDSTANTNVVLWADHFLALKEGGLPYSVDPQTLETIKYDPFGQIKAKTFTAHPKIDPYTNELVVFGYEARGLASLDIVIYALDSNGVKHDEQWIKSPWCAPIHDCAITPNWIILALWPFEASVDRMKKGGHHWAWDYDLPATFIVAPRRSSTKLPPGWQPGESRVYSWKNCMLIHTGGAWESEDGQTLFMETTRVHDNGFPFFPTNEGVYPAPDPKSDYVRWTFDLSQPTNSKVPDPEIILDMPAEFPRLDERFLSKSYNYVWINVYIHEDQNGDGHTIVEGLNGLAMHNSKTKETKCFNAGAESFCQEPIFIPRSDDAPEGDGWVMTMVERRGANRNEIVVLDTKDFEKPIAVIQLPFHVKAQVHGNWVDQRRLKAWQKLARDAVPEPISGQGALEPL
In the case of B1, the activity toward isoeugenol is reported as “high activity” and the “conversion of added isoeugenol to vanillin (HPLC)” value is reported as “Almost all isoeugenol added to the reaction mixture was converted to vanillin”.
